# Experimental data published in patent US20240117454.
# T1: Bovine neck ligament-derived elastin (SIGMA, E1625), P04985
# T1 chain: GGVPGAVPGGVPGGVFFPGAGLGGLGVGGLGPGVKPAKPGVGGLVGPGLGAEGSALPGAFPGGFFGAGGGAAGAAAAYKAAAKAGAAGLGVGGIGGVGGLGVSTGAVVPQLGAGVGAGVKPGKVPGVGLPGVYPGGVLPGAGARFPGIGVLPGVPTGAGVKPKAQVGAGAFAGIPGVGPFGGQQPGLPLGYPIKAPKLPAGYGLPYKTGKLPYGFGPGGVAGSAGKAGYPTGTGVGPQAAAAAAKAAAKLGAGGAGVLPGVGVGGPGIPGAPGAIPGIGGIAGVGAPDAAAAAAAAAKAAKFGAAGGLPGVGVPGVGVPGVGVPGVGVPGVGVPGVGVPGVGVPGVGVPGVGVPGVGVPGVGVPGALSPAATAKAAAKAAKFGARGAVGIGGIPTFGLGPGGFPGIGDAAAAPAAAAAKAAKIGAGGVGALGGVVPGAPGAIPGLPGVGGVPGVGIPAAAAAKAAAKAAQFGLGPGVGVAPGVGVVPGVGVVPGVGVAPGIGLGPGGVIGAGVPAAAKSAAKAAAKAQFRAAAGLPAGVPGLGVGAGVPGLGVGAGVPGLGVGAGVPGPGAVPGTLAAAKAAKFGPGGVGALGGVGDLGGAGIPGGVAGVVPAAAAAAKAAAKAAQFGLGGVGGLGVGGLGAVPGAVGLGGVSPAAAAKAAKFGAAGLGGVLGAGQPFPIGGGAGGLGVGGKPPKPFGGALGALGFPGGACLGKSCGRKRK
# B1: BLP homologue derived from Lysobacter gummosus (LgBLP) (protein)
# chain: AERGLSGQDLVYSYDEMFDFDIDAYLAKNAPHLSRHAESISHWAGYSGISPKVLIALMEQQSGAITRKHAAADAAKRPFGALAKAKDFNGQTREVAQALREALYENDGPDAKGAVTVARANPLQALFERAGASQASAKLSGDGEFQLVYGRLFNEPRQAQAPSARFAKAGPDVQPLSP
# B2: beta-lytic metallopeptidase (BLP) (protein)
# chain: SAQGHGLSGEDLVYSYDEMFDFDIDAYLAKHAPHLHKHSEEISHWAGYSGISPKVLIALMEQQSGAVSAKRATNRPFGKLARADGFGAQTREVALALRESLYERDPDGAKGPVTLARANPLQALFERSGDNEPAAALRGDGEFQLVYGRLFNEPRQAKAASDRFAKAGPDVQPLSPNGL
# Assays:
# [1] = target: T1, Bovine neck ligament-derived elastin …
# [2] = target: bovine Achilles tendon-derived collagen (SIGMA, C9879)
Protein,"elastin degrading activity (amount of peptides liberated, relative value to savinase) [1]","collagen degrading activity (amount of peptides liberated, relative value to savinase) [2]"
B1,LgBLP had lower elastin degrading activity as compared to savinase,
B2,BLP was equivalent in elastin degrading activity to savinase,had significantly lower collagen degrading activity as compared to savinase
